One block for each molecule: values may come before it.
What was measured:
[1] = molecular target: T1, ectoine synthase (Pl)EctC (Paenibacillus lautus, UniProt A0A1R1AV52); experiment: X-ray crystal structure ([…] Å); assay type: binding
T1 construct: full-length (130 amino acids), C-terminal Strep-tag II

[2] = molecular target: Paenibacillus lautus ectoine synthase fused at its C-terminus to a Strep-tag II affinity peptide [(Pl)EctC-Strep-tag II] (Paenibacillus lautus Y4.12MC10); experiment: SEC-MALS; HPLC-MALS; 200 µl of purified (Pl)EctC protein (2 mg ml^-1) loaded onto a Bio SEC-5 HPLC column; measured mass 32.2 kDa against 15.87 kDa calculated for the monomer
purified protein = substrate: CC(=O)NCC[C@H](N)C(=O)O; experiment: purified protein; assay type: binding, Paenibacillus lautus; settings: Fe2+ active site in the cupin barrel; Trp-21, Arg-25, Asn-38, Thr-40, Tyr-52, Glu-57; acetamide oxygen coordinates the iron

Molecule: CC1=N[C@H](C(=O)O)CCN1 [ectoine, (S)−2-methyl-1,4,5,6-tetrahydropyrimidine-4-carboxylic acid]
X-ray crystal structure (2.5 Å) [1]: The ectoine molecule is coordinated within the active site of the (Pl)EctC enzyme through five direct interactions

stoichiometry N [2]: 2
Molecule: Paenibacillus lautus ectoine synthase fused at its C-terminus to a Strep-tag II affinity peptide [(Pl)EctC-Strep-tag II] (enzyme)

B1: ectoine synthase (Pl)EctC (Paenibacillus lautus) (protein)
chain: MIVKHLEEIVDTKDDIDTKTWNSRRLLLTKDGMGFSLNDTLIKAGTETLIWYKNHVEAVYCIEGEGEIEVIGGETYPISPGMMYALDGHEKHYLRARSQMRMVCVFNPPLTGAEVHDEEGTYPLLAPISD
notes: full-length (130 amino acids), C-terminal Strep-tag II
Km (purified protein): 7.8 mM

Source: article PMC6344544, “Illuminating the catalytic core of ectoine synthase through structural and biochemical analysis” (Scientific Reports, 2019)
